Data on one protein can be found in paper PMC4568394, “Differentially expressed seed aging responsive heat shock protein OsHSP18.2 implicates in seed vigor, longevity and improves germination and seedling establishment under abiotic stress” (Frontiers in Plant Science, 2015).

The data set deals with the molecule itself. Description: SEC; Superose 6 column; purified OsHSP18.2 run with molecular weight markers, Ve/Vo against log molecular weight; homooligomer. (SEC sorts molecules by how far they enter the pores of the column.)

B1: OsHSP18.2, a class II cytosolic small heat shock protein of rice (6X His tagged recombinant) (natural protein, Oryza sativa indica var. PB-1, UniProt Q5VRY1 1-166, looked up)
chain: MESAMFGLETPLMTALQHLLDIPDGEGGAAGKQGATGGPTRAYVRDARAMAATPADVKDLPGAYAFVVDMPGLKSSDIKVQVEEERLLVISGERRRGGGEEEKEESCKYLRMERRMGKFMRKFVLPDNADVDKISAVCQDGVLTVTVEKLPPPEPKKPKTIEVKVA
notes: OsHSP18.2, class II heat shock protein, Oryza sativa indica var; complete ORF / CDS, 166 aa, predicted 18.2 kDa; the indica PB-1 clone may differ from it; pET23b usually adds a C-terminal His6 tag; copies: 12
B1: the stoichiometry N (usually a count of units in the complex or per binding partner) is about 12 subunits.
